# Data from patent US20200283478A1 (Genentech, published 2020).
# Read-outs that look alike come from different tables or passages of the source.
# Columns and labels:
# Experiment in all cases: phage spot ELISA
# PCSK9Δhelix [1] = target: T1, PCSK9Δhelix (human, Chemically biotinylated in the phage ELISAs; the site is not given.)
# T1 construct: construct M1-Q692 with engineered TEV site, cleaved by TEV; also called His-PCSK9Δhelix; open groove PCSK9Δhelix
# [2] = target: T2, proprotein convertase subtilisin/kexin type 9 (PCSK9) (human, UniProt Q8NBP7 31-692)
# T2 construct: His-tagged full-length PCSK9 in TR-FRET and SPR, biotinylated in phage ELISA; secreted protein is autoprocessed (prodomain plus catalytic/CRD chain starting at S153); also called rec.PCSK9; His-PCSK9
# T2 sequence (Q8NBP7 other isoform, or with tags, fused parts or gaps limits assumed): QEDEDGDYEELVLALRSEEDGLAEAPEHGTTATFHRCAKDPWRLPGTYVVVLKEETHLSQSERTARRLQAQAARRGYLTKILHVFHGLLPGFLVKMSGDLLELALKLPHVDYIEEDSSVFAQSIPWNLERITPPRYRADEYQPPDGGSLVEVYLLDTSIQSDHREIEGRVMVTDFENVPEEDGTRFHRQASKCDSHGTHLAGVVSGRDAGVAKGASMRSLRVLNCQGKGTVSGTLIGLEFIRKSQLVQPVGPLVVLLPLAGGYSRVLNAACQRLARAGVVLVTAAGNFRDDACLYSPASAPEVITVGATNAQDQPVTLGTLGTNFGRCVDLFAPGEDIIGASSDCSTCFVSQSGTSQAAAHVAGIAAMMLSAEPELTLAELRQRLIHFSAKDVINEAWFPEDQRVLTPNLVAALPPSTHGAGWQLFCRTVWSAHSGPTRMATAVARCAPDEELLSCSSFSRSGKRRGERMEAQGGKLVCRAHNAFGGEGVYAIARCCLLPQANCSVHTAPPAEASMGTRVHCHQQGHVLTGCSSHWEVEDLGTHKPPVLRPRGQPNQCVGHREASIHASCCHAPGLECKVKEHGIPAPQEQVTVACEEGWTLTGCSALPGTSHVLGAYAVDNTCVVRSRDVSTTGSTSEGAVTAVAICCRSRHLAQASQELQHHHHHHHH
# Description: The binding signal of the same phage particle to NeutrAvidin was considered as non-specific binding (“noise”).
# PCSK9Δhelix [3] = target: T1, PCSK9Δhelix; remark: listed apart in the source
# [4] = target: T2, proprotein convertase subtilisin/kexin …; remark: listed apart in the source
# T1 sequence (prodomain, as listed by the source mutant limits assumed, chain 1 of 2): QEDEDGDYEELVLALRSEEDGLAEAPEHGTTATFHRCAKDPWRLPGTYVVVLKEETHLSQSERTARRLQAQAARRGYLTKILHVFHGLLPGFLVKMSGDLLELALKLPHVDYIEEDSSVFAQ
# T1 sequence (chain, as listed by the source mutant limits assumed, chain 2 of 2): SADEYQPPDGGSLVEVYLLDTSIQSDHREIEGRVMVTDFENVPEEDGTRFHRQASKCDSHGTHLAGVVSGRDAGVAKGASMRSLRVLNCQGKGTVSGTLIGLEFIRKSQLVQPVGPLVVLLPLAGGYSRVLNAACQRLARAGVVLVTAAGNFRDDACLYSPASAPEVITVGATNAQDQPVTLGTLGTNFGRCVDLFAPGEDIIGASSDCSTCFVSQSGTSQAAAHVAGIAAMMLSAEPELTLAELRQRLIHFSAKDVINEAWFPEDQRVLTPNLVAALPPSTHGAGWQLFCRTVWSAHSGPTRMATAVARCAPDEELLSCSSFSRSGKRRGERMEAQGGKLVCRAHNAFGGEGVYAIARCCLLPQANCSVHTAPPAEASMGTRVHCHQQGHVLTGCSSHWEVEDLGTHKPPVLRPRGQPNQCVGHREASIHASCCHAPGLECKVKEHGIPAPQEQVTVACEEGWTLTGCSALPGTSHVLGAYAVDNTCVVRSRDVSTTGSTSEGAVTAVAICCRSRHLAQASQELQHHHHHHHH
Binder,ELISA (PCSK9Δhelix [1]),s/n ratio (PCSK9Δhelix [1]),ELISA [2],s/n ratio [2],ELISA (PCSK9Δhelix [3]),s/n ratio (PCSK9Δhelix [3]),ELISA [4],s/n ratio [4]
TAFTSWEEYLDWVGSGKNNYAYLINMPRAPGI [SEQ ID NO 325],2.54,29.1,2.54,24.7,,,,
TAFTSWEEYLDWVGSGGCGYRYMCDMINGL [SEQ ID NO 358],,,,,3.01,30.4,2.92,32.8
TAFTSWEEYLDWVGSGRGEVYDKGGVIVHL [SEQ ID NO 343],,,,,2.83,30.1,2.84,30.5
TVFTSWEEYLDWV (also called phage displaying Pep2-8) [phage-displayed Pep2-8 (on p8)],2.1,21.8,2.98,30,,,,
TAFTSWEEYLDWV [phage-displayed Pep2-8V2A],0.07,1.07,1.27,16.7,,,,
TAFTSWEEYLDWVGSGSPCRVGYTPC [SEQ ID NO 351],,,,,2.87,25.4,2.92,27.7
TAFTSWEEYLDWVGSGKCDSHYIRGVVACH [SEQ ID NO 356],,,,,3.03,30.9,2.95,30.2
TAFTSWEEYLDWVGSGDCLRYRVGSSCS [SEQ ID NO 360],,,,,2.87,28.9,3.04,29.6
TAFTSWEEYLDWVGSGGDCYPHCRLV [SEQ ID NO 359],,,,,2.85,28.5,2.86,28.9
TAFTSWEEYLDWVGSGRCESKGWANTCVSE [SEQ ID NO 362],,,,,2.56,15.8,2.98,20.7
TAFTSWEEYLDWVGSGACLNHFVSGNMIRC [SEQ ID NO 327],1.38,8.17,2.87,26.1,,,,
TAFTSWEEYLDWVGSGQVTSLPQA [SEQ ID NO 363],,,,,0.11,1.21,2.46,27.9
TAFTSWEEYLDWVGSGNPTYWLTRIS [SEQ ID NO 331],3.02,28,2.98,23.1,,,,
TAFTSWEEYLDWVGSGKLWNLGRV [SEQ ID NO 306],2.62,8.55,2.79,28.2,,,,
TAFTSWEEYLDWVGSGCCSYGYEKCCNG [SEQ ID NO 349],,,,,2.88,27.2,2.87,28.6
TAFTSWEEYLDWVGSGCYPLCRVG [SEQ ID NO 355],,,,,3.05,29.6,3.06,16.2
TAFTSWEEYLDWVGSGCYPLCRVL [SEQ ID NO 364],,,,,3.09,31.9,2.86,31.1
TAFTSWEEYLDWVGSGGREMRSVIQM [SEQ ID NO 344],,,,,2.74,26.6,2.71,28.2
TAFTSWEEYLDWVGSGSSTWHFVGGVRV [SEQ ID NO 354],,,,,2.88,29.7,2.71,24.4
TAFTSWEEYLDWVGSGGPWNLNRV [SEQ ID NO 309],2.7,29.3,2.68,27.6,,,,
TAFTSWEEYLDWVGSGGDCGYHYMCSMT [SEQ ID NO 345],,,,,2.63,25.5,2.75,25

Binder,ELISA (PCSK9Δhelix [1]),s/n ratio (PCSK9Δhelix [1]),ELISA [2],s/n ratio [2],ELISA (PCSK9Δhelix [3]),s/n ratio (PCSK9Δhelix [3]),ELISA [4],s/n ratio [4]
TAFTSWEEYLDWVGSGVVLWNHSRIL [SEQ ID NO 313],2.96,26.6,2.95,26.8,,,,
TAFTSWEEYLDWVGSGNVRCYRDVPSCS [SEQ ID NO 329],2.68,26.3,2.66,25.9,,,,
TAFTSWEEYLDWVGSGCPFYDWRCSDFS [SEQ ID NO 328],2.78,26.5,2.8,25,,,,
TAFTSWEEYLDWVGSGPTSGLTPS [SEQ ID NO 361],,,,,0.127,1.3,2.66,27.5
TAFTSWEEYLDWVGSGEDVVCYGRVDYMPLCV [SEQ ID NO 330],2.7,24.8,2.67,25.2,,,,
TAFTSWEEYLDWVGSGSETGLGTYYG [SEQ ID NO 350],,,,,2.78,25.5,2.81,28.1
TAFTSWEEYLDWVGSGGCVKYRGSVSCQESKT [SEQ ID NO 323],2.73,24.2,2.85,18,,,,
TAFTSWEEYLDWVGSGPHSYWLDRVQ [SEQ ID NO 332],2.68,24.6,2.89,25.3,,,,
TAFTSWEEYLDWVGSGNCWSSLRGICENLG [SEQ ID NO 307],2.91,22.5,2.81,21.7,,,,
TAFTSWEEYLDWVGSGRCGLAWCVVLVDQ [SEQ ID NO 365],,,,,2.8,28.5,2.62,20.8
TAFTSWEEYLDWVGSGNMCYLRGKMDCNIV [SEQ ID NO 347],,,,,2.83,28.6,2.91,30.9
TAFTSWEEYLDWVGSGNCARLYSHQRDYSQVC [SEQ ID NO 352],,,,,2.64,26.1,2.66,24.4
TAFTSWEEYLDWVGSGQELPNHRRLS [SEQ ID NO 346],,,,,2.43,14.3,2.3,19.1
TAFTSWEEYLDWVGSGCLDRSGGCYTREGYLS [SEQ ID NO 353],,,,,3.05,30.4,3.06,29
TAFTSWEEYLDWVGSGSCSWNVERIRGCSV [SEQ ID NO 311],2.83,26,2.92,18.8,,,,
TAFTSWEEYLDWVGSGPLLWNLQKVH [SEQ ID NO 310],2.76,24.4,2.75,23.5,,,,
TAFTSWEEYLDWVGSGKLWNLTRISS [SEQ ID NO 312],2.69,25.8,2.87,28.1,,,,
TAFTSWEEYLDWVGSGEHQFYSYRGVDVYR [SEQ ID NO 324],2.66,26.2,2.55,22.3,,,,
TAFTSWEEYLDWVGSGKMTHMKAD [SEQ ID NO 357],,,,,0.106,1.07,2.31,22.4
TAFTSWEEYLDWVGSGVCSDHYIGGKEVRC [SEQ ID NO 348],,,,,2.94,15.4,2.99,27.4
